{
  "source": "paper PMC3936849",
  "about": "“MB109 as bioactive human bone morphogenetic protein-9 refolded and purified from E. coli inclusion bodies” (Microbial Cell Factories, 2014)",
  "proteins": {"B1": {"name": "MB109 (E. coli-derived mature domain of human bone morphogenetic protein-9, refolded functional dimer) (ligand)", "chain": "MSAGAGSHCQKTSLRVNFEDIGWDSWIIAPKEYEAYECKGGCFFPLADDVTPTKHAIVQTLVHLKFPTKVGKACCVPTKLSPISVLYKDDMGVPTLKYHYEGMSVAECGCR", "notes": "engineered first methionine (translational start) directly before Ser320; mature domain of human BMP-9, Ser320-Arg429 (110 amino acids) of the 429-residue polypeptide; Disulfide-linked homodimer of the mature domain; pET21a between NdeI and XhoI with a 3' stop codon; also called hBMP-9 mature domain; human BMP-9"}},
  "target": "the molecule itself",
  "assay": "non-reduced SDS-PAGE; SEC-purified denatured monomeric MB109 refolded by rapid dilution (CHAPS, NaCl, EDTA, GSH/GSSG, Tris-HCl, 4°C, 7 days); supernatants run on non-reduced 12% SDS-PAGE; disulfide-linked dimer",
  "data": [
    {"protein": "B1", "values": [
      {"measurement": "stoichiometry N", "result": 2}
    ]}
  ]
}
